Assay results taken from patent US20160264662A1 (US Dept. of Health and Human Services, published 2016).

How the values were obtained:
[1] = biological target: recombinant TEM8 (AP-TEM8); assay: ELISA-type titration of m825-MMAE on recombinant AP-TEM8; absorbance at 450 nm against Log (ng/well)
[2] = biological target: T1, recombinant human TEM8 ectodomain (human, UniProt Q9H6X2 33-321); assay: SPR (Biacore), antibody in IgG1 format, recombinant human TEM8 ectodomain; apparent KD
T1 construct: also called TEM8-ED; Tumor Endothelial Marker 8
T1 sequence: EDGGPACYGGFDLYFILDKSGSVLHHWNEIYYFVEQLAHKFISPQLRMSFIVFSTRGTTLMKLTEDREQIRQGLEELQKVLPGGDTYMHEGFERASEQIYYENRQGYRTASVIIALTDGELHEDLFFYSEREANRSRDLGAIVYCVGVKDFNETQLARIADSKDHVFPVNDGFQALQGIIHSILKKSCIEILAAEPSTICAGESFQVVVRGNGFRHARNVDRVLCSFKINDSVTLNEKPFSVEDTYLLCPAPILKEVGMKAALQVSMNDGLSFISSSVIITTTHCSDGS

[3] = biological target: T2, human CMG2 (hCMG2) expressed on CHO or 293 cells (human, UniProt P58335 34-489); assay: flow cytometry (FACS), CHO cells expressing hCMG2 against parental CHO
T2 construct: whole, on cells; also called ANTXR2

[4] = biological target: T3, 293 mCMG2 (mouse, UniProt Q6DFX2); assay: flow cytometry (FACS), 293 cells expressing mCMG2 against parental 293
T3 construct: expressed on human embryonic kidney 293 cells; also called mouse CMG2; mouse ANTXR2 expressed on 293 cells
T3 sequence (Q6DFX2 32-487 limits assumed): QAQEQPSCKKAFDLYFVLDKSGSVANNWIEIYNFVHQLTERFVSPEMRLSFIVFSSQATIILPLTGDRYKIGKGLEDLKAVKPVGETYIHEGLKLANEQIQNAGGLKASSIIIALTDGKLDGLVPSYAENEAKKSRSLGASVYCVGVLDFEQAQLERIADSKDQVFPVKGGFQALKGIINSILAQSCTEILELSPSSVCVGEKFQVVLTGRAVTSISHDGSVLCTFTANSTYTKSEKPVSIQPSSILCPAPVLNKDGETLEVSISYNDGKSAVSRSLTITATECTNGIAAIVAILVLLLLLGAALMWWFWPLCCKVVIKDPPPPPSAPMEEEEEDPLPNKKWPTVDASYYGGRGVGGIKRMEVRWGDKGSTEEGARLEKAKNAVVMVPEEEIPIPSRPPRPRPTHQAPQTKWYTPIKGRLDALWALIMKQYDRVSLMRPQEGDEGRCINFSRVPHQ

T2 sequence (P58335 34-489): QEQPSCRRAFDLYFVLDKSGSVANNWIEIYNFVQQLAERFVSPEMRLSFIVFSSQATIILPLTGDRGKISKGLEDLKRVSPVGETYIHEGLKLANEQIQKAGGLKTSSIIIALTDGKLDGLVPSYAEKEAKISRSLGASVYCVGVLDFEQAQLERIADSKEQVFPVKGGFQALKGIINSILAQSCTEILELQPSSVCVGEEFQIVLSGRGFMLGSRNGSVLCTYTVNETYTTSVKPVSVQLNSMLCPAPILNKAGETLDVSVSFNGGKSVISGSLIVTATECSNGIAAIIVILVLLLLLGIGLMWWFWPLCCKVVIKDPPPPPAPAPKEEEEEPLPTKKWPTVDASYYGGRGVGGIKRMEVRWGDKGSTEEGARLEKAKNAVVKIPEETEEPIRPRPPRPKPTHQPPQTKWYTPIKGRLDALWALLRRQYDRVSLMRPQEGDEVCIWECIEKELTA

B1: m825-MMAE conjugate (m825 antibody in human IgG1 format conjugated to MMAE) (other)
VH: QVQLVQSGAEVKKPGTSVKVSCKVPGYTFSSYAISWVRQAPGQGLEWMGGIIPIFGTTNYAQKFQGRVTITGEESTSTVYMELSSLRSEDTAVYYCARDTDYMFDYWGQGTLVTVSS
VL: SSELTQDPVVSVALGETVSITCQGDNLRDFYASWYQQKPGQAPLLVMYGKNRRPSGIPDRFSGSTSGNTLSLTITGAQAEDEADYYCSSRDNSKHVVFGGGTKVTVL
modifications: MMAE with stretcher unit, Val-Cit peptide cleavage site and spacer, attached to thiol groups formed by partial reduction of inter-chain disulfide bonds (positions not stated)
notes: also called anti-TEM8-MMAE
In the case of B1, the “EC50 (read off the curve)” value [1] is reported as roughly 0.5 ng/well.

B2: m825 antibody in human IgG1 format (antibody, V domains shown)
VH: QVQLVQSGAEVKKPGTSVKVSCKVPGYTFSSYAISWVRQAPGQGLEWMGGIIPIFGTTNYAQKFQGRVTITGEESTSTVYMELSSLRSEDTAVYYCARDTDYMFDYWGQGTLVTVSS
VL: SSELTQDPVVSVALGETVSITCQGDNLRDFYASWYQQKPGQAPLLVMYGKNRRPSGIPDRFSGSTSGNTLSLTITGAQAEDEADYYCSSRDNSKHVVFGGGTKVTVL
notes: also called m825 mAb; human m825-IgG1
With B2 the Kd [2] was 0.034 nM.

B3: m822 antibody in human IgG1 format (antibody, V domains shown)
VH: QVQLVQSGAEVKKPGASVKVSCKVSGYTFSSYAISWVRQAPGQGLEWMGGIIPIFGTANYAQKFQGRVTITADESTSTAYMELSSLRSEDTAVYYCARDTDYMFDYWGQGTLVTVSS
VL: SSELTQDPVVSVALGETVSITCQGDNLRDFYASWYQQKPGQAPLLVMYGKNRRPSGIPDRFSGSTSGNTLSLTITGAQAEDEADYYCSSRDNSKHVVFGGGTKVTVL
notes: also called m822 mAb
B3 showed a Kd [2] of 35 nM.

B4: m830 antibody in human IgG1 format (antibody, V domains shown)
VH: EVQLVESGGGVVQPGRSVRLSCAASGFTFSTYTMHWVRQAPGKGLEWVAIISNDGSNKYYADPVRGRFTISRDNSKNTLYLQMNSLRAEDTAVYYCVRGSSWYRGNWFDPWGQGTLVTVSS
VL: DIQMTQSPSSLSASVGDRVTIACRASQTISRYLNWYQQKPGKAPKLLIYAASSLQSGVSSRFSGSGSGTEFTLTISSLQPEDFATYFCQQTYSPPITFGQGTRLEIKR
notes: also called m830 mAb; human m830-IgG1
In the case of B4, the binding result [3] is reported as “no binding”, the binding result [4] is reported as “no binding” and the Kd [2] is reported as 12 nM.

B5: m863 antibody in human IgG1 format (antibody, V domains shown)
VH: EVQLVETGAEVKKPGASVKVSCKASGYTFTGYYMHWVRQAPGQGLEWMGWINPTSGSTNYAQKFQGRVTMTRDTSISTAYMELSGLRSDDTAVYYCVRDPGSPKWLAFDPWGQGTLVTVSS
VL: DIQLTQSPSSLSASVGDRVTITCRASRAISRYLNWYQQKPGKAPKLLIYAASSLQSGVSSRFSGSGSGTEFTLTISSLQPEDFATYFCQQTYSPPITFGQGTRLEIKR
notes: also called m863 mAb
With B5 the binding result [3] was “no binding”, the binding result [4] was “no binding” and the Kd [2] was 1.2 nM.
